Measured values as given in patent publication US9493781B2, “Synthetic brassica-derived chloroplast transit peptides” (DOW AGROSCIENCES LLC, priority 2012, dated 2016).

Experiments:
[1] = test system: Arabidopsis; test: dgt-28, dgt-32, dgt-33, dgt-3, dgt-7 transformed Arabidopsis (T1, T2, T3) response to postemergence glyphosate, % visual injury; assay type: in vivo, Arabidopsis thaliana; details: 14 days after application
Summary of the method: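 Transgenic T1, T2 and T3 Arabidopsis (low-copy events for T2/T3, hemizygous and homozygous in T2) sprayed postemergence with glyphosate at 105, 420, 1,680 or 3,360 g ae/ha. Visual injury scored 2 weeks after treatment as mean, SD and range. Non-transformed Columbia served as sensitive control.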

[2] = test system: Arabidopsis; test: Heritability progeny test of T1 families (T2 plants) with glufosinate, Arabidopsis; assay type: in vivo, Arabidopsis thaliana; details: progeny test of 100 T2 plants, glufosinate 200 g ae/ha
Source text: Heritability. Confirmed transgenic T1 Arabidopsis events were self-pollinated to produce T2 seed. These seed were progeny tested by applying Ignite™ herbicide containing glufosinate (200 g ae/ha) to 100 random T2 siblings. […] The T1 families (T2 plants) segregated in the anticipated 3 Resistant: 1 Sensitive model for a dominantly inherited single locus with Mendelian inheritance as determined by Chi square analysis (P>0.05). […] Seed were collected from 5 to 15 T2 individuals (T3 seed). Twenty-five T3 siblings from each of 3-4 randomly-selected T2 families were progeny tested as previously described.

[3] = Table 8, T1 Arabidopsis, 105 g ae/ha glyphosate
[4] = Table 8, T1 Arabidopsis, 420 g ae/ha glyphosate
[5] = Table 8, T1 Arabidopsis, 1680 g ae/ha glyphosate
[6] = Table 8, T1 Arabidopsis, 3360 g ae/ha glyphosate
[7] = Table 10, T1 Arabidopsis, 1,680 g ae/ha glyphosate
[8] = Table 12, T2 Arabidopsis, 1 copy, 420 g ae/ha glyphosate
[9] = Table 12, T2 Arabidopsis, 1 copy, 840 g ae/ha glyphosate
[10] = Table 12, T2 Arabidopsis, 1 copy, 1680 g ae/ha glyphosate
[11] = Table 12, T2 Arabidopsis, 1 copy, 3360 g ae/ha glyphosate

B1: pDAB105532: TraP9 v2 -- dgt-28 v5: binary construct TraP9 v2: dgt-28 v5 (SEQ ID NO:35) (nucleic acid)
DNA: ATGGCACAAGCCAGCCGTATCTGCCAGAATCCATGTGTGATATCCAATCTCCCCAAAAGCAACCACCGTAAGTCCCCTTTCTCTGTCTCACTCAAGACGCATCAGCCTAGAGCCTCTTCATGGGGACTTAAGAAGTCTGGCACCATGCTGAACGGTTCAGTGATTAGACCCGTCAAGGTGACAGCTTCTGTTTCCGCAGCAAGAGGGATGCCAGCCTTGTCTTTACCTGGATCAAAGAGTATCACAGCTAGGGCACTCTTTCTTGCTGCTGCTGCTGATGGGGTTACTACTTTGGTGAGGCCATTGAGAAGTGACGACACAGAAGGATTCGCTGAGGGGTTAGTTCGTTTAGGCTATCGTGTAGGGAGGACACCCGATACTTGGCAAGTCGATGGCAGACCACAAGGACCAGCAGTGGCTGAGGCTGACGTCTACTGTAGAGACGGAGCAACCACCGCTAGATTCTTGCCAACCTTAGCAGCTGCTGGTCACGGAACATACAGATTTGATGCTTCACCACAGATGAGGAGACGTCCTCTTTTGCCCTTAAGCAGAGCCTTGAGGGATTTGGGTGTCGATCTTAGACACGAAGAAGCTGAAGGTCATCACCCTCTGACTGTCCGTGCTGCTGGGGTTGAAGGAGGAGAGGTTACTTTGGATGCTGGTCAGTCAAGTCAGTATCTCACTGCCTTGTTGCTCCTTGGTCCCCTTACAAGACAAGGACTGAGGATAAGGGTTACTGATTTGGTGTCAGCACCATACGTGGAGATTACGCTTGCAATGATGAGGGCTTTCGGAGTTGAAGTGGCAAGGGAGGGAGATGTGTTCGTTGTTCCACCTGGTGGATATCGTGCAACTACGTATGCTATAGAACCCGACGCAAGTACTGCTTCTTACTTCTTCGCAGCTGCTGCTTTGACTCCTGGAGCTGAAGTGACTGTACCTGGGTTAGGCACGGGAGCACTTCAAGGAGATTTGGGATTTGTAGATGTCTTAAGGAGAATGGGAGCCGAGGTGTCCGTAGGAGCTGATGCAACCACTGTTAGAGGAACTGGTGAATTGCGTGGCCTTACAGCCAACATGAGAGACATAAGTGATACGATGCCGACCCTCGCTGCAATAGCACCCTTTGCTAGTGCTCCAGTTAGAATCGAGGATGTTGCCAACACTCGTGTCAAAGAATGTGACAGACTTGAGGCTTGTGCAGAGAACCTTAGGAGGTTGGGAGTAAGGGTTGCAACGGGTCCGGACTGGATTGAGATACACCCTGGTCCAGCTACTGGTGCTCAAGTCACAAGCTATGGTGATCACAGAATTGTGATGTCATTTGCAGTGACTGGACTTCGTGTGCCTGGGATCAGCTTCGACGACCCTGGCTGTGTTCGTAAGACTTTTCCTGGGTTTCACGAGGCTTTCGCAGAATTGAGGCGTGGCATTGGGAGCTGA
modifications: In-frame fusion of dgt-28 v5 and TraP9 v2
% Injury Ave [1, 3]: 17.5%
% Injury Range (%) [1, 3]: 0-60%
No. plants with 20-40% injury [1, 3]: 0
No. plants with <20% injury [1, 3]: 3
No. plants with >40% injury [1, 3]: 1
% Injury Ave [1, 4]: 39.5%
% Injury Range (%) [1, 4]: 18-70%
No. plants with 20-40% injury [1, 4]: 1
No. plants with <20% injury [1, 4]: 1
No. plants with >40% injury [1, 4]: 2
% Injury Ave [1, 5]: 26.3%
% Injury Range (%) [1, 5]: 5-80%
No. plants with 20-40% injury [1, 5]: 0
No. plants with <20% injury [1, 5]: 3
No. plants with >40% injury [1, 5]: 1
% Injury Ave [1, 6]: 25.8%
% Injury Range (%) [1, 6]: 8-75%
No. plants with 20-40% injury [1, 6]: 0
No. plants with <20% injury [1, 6]: 3
No. plants with >40% injury [1, 6]: 1
% Injury Ave [1, 7]: 26.3%
% Injury Range (%) [1, 7]: 5-80%
No. plants with 20-40% injury [1, 7]: 0
No. plants with <20% injury [1, 7]: 3
No. plants with >40% injury [1, 7]: 1
% Injury Ave [1, 8]: 2.0%
% Injury Range (%) [1, 8]: 0-8%
No. plants with 20-40% injury [1, 8]: 0
No. plants with <20% injury [1, 8]: 4
No. plants with >40% injury [1, 8]: 0
% Injury Ave [1, 9]: 9.0%
% Injury Range (%) [1, 9]: 8-12%
No. plants with 20-40% injury [1, 9]: 0
No. plants with <20% injury [1, 9]: 4
No. plants with >40% injury [1, 9]: 0
% Injury Ave [1, 10]: 7.3%
% Injury Range (%) [1, 10]: 2-12%
No. plants with 20-40% injury [1, 10]: 0
No. plants with <20% injury [1, 10]: 4
No. plants with >40% injury [1, 10]: 0
% Injury Ave [1, 11]: 11.0%
% Injury Range (%) [1, 11]: 10-12%
No. plants with 20-40% injury [1, 11]: 0
No. plants with <20% injury [1, 11]: 4
No. plants with >40% injury [1, 11]: 0
T1 Families Tested Segregating at 1 Locus (%) [2]: 100%
